Key:
Assay in all cases: cell-based or functional assay
[1] = target: p-NF-H (phosphorylated neurofilament protein of high molecular weight), mouse, endogenous in Neuro-2a cells (mouse) (UniProt P19246)
[2] = target: p-tau (phosphorylated microtubule-associated protein tau), mouse, endogenous in Neuro-2a cells and mouse brain (mouse) (UniProt P10637)
[3] = target: apoE cleavage enzyme (chymotrypsin-like serine protease; in mouse brain lysate or roughly/partially purified)

p-NF-H (phosphorylated neurofilament protein of high molecular weight), mouse, endogenous in Neuro-2a cells (mouse), sequence (P19246 whole entry): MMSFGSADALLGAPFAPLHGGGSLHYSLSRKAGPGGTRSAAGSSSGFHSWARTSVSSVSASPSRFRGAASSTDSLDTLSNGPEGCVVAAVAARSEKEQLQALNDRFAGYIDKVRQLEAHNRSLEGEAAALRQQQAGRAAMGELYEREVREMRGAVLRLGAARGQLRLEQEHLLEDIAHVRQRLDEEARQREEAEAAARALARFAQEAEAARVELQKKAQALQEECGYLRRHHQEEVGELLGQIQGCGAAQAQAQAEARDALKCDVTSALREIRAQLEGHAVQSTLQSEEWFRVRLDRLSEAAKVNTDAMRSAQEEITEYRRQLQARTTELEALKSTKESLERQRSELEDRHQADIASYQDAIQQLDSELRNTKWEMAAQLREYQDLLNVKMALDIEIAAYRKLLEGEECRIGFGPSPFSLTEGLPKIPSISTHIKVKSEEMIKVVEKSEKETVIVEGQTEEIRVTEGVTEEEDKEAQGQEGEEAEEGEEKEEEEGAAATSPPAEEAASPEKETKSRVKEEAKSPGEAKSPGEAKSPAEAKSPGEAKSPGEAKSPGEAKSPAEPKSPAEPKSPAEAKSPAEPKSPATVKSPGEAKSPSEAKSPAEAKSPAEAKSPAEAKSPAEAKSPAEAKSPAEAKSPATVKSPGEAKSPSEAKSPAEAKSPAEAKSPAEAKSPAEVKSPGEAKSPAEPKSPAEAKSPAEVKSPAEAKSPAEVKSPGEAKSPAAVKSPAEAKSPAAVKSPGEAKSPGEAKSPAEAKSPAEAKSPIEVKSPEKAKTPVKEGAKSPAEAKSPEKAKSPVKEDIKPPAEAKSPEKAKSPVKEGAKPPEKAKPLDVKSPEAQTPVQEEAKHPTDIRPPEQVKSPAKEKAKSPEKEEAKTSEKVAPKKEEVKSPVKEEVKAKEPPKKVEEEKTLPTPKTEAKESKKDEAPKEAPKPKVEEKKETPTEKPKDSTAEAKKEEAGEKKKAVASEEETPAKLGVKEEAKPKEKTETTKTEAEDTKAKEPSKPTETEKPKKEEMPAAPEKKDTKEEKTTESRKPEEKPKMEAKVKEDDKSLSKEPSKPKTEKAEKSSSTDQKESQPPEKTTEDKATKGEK
p-tau (phosphorylated microtubule-associated protein tau), mouse, endogenous in Neuro-2a cells and mouse brain (mouse), sequence (P10637 other isoform, or with tags, fused parts or gaps limits assumed): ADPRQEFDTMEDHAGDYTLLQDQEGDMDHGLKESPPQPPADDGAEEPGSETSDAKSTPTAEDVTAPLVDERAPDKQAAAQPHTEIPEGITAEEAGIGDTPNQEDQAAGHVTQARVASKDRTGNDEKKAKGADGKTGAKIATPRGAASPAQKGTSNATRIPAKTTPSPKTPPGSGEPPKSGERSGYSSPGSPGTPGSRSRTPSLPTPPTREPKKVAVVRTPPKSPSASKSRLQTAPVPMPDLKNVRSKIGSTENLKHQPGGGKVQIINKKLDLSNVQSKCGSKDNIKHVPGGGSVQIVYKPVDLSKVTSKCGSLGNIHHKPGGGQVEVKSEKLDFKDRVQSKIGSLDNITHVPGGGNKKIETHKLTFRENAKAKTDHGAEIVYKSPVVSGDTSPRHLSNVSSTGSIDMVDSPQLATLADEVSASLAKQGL

“apoE3(Δ272-299), expressed in transfected cells (pFLAG-CMV-3 vector, secretory pathway, N-terminal FLAG) (from UniProt P02649 19-289)” was tested, and the transfected cells displaying the intracellular filamentous inclusions [1] was 32% and the transfected cells displaying the intracellular filamentous inclusions [2] was 32%.

“apoE4(Δ272-299), expressed in transfected cells (pFLAG-CMV-3 vector, secretory pathway, N-terminal FLAG) (from UniProt P02649 19-289)” gave a transfected cells displaying the intracellular filamentous inclusions [1] of 78% and a transfected cells displaying the intracellular filamentous inclusions [2] of 78%.

For “purified human apoE4 (full-length) (from UniProt P02649 19-317)”, the inhibition of apoE cleavage enzyme activity (chromogenic assay, 1 mM Ala-Ala-Pro-Phe-p-nitroanilide; 7 µM apoE4) [3] was 89%.
